Test results reported in publication PMC2965767, “Identification and Genome-Wide Prediction of DNA Binding Specificities for the ApiAP2 Family of Regulators from the Malaria Parasite”.

Key:
[1] = target: T1, PF13_0026 D1 (PF3D7_1305200, AP2 domain transcription factor, putative) (Plasmodium falciparum) (UniProt Q8IER4); conditions: PBM; highest protein concentration obtained; buffer not given; scale: PBM E-score of the seed 8-mer
T1 sequence: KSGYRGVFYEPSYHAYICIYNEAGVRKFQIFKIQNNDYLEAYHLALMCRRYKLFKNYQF

[2] = target: T2, PFD0985w D1 (ApiAP2) (Plasmodium falciparum) (UniProt Q8I1N6); conditions: PBM; highest protein concentration obtained; buffer not given; scale: PBM E-score of the seed 8-mer
T2 sequence: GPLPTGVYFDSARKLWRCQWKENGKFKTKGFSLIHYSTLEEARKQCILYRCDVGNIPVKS

[3] = target: T3, PF10_0075 D2ext (PF3D7_1007700, AP2 domain transcription factor AP2-I) (Plasmodium falciparum) (UniProt Q8IJW6); conditions: PBM; highest protein concentration obtained; buffer not given; scale: PBM E-score of the seed 8-mer
T3 sequence: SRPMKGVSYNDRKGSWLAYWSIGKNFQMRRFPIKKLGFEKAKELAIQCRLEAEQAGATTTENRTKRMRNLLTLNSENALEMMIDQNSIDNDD

[4] = target: T4, PFF0670w D1 (PF3D7_0613800, AP2 domain transcription factor, putative) (Plasmodium falciparum) (UniProt C6KSY0); conditions: PBM; highest protein concentration obtained; buffer not given; scale: PBM E-score of the seed 8-mer
T4 sequence: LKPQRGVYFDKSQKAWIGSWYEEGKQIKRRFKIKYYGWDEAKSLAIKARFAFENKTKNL

[5] = target: T5, PF11_0442 D1ext (PF3D7_1143100, AP2 domain transcription factor AP2-O, putative) (Plasmodium falciparum) (UniProt Q8IHT5); conditions: PBM; highest protein concentration obtained; buffer not given; scale: PBM E-score of the seed 8-mer
T5 sequence: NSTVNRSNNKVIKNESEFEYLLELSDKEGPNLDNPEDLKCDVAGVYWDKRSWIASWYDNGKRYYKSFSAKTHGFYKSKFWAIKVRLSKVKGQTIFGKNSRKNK

[6] = target: T6, PF14_0079 D1 (PF3D7_1408200, AP2 domain transcription factor AP2-G2, putative) (Plasmodium falciparum) (UniProt Q8IM14); conditions: PBM; highest protein concentration obtained; buffer not given; scale: PBM E-score of the seed 8-mer
T6 sequence: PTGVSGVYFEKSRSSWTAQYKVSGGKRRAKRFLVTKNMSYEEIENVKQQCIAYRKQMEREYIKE

[7] = target: T7, PF11_0091 D1 (PF3D7_1107800, AP2 domain transcription factor, putative) (Plasmodium falciparum) (UniProt Q8IIS4); conditions: PBM; highest protein concentration obtained; buffer not given; scale: PBM E-score of the seed 8-mer
T7 sequence: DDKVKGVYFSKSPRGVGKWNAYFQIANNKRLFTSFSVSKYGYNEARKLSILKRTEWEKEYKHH

[8] = target: T8, PFL1900w D1ext (PF3D7_1239200, AP2 domain transcription factor, putative) (Plasmodium falciparum) (UniProt Q8I531); conditions: PBM; highest protein concentration obtained; buffer not given; scale: PBM E-score of the seed 8-mer
T8 sequence: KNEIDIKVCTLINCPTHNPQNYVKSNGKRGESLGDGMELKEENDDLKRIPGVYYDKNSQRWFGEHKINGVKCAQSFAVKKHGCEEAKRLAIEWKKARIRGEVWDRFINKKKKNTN

[9] = target: T9, PFF0200c DLD (PF3D7_0604100, AP2 domain transcription factor) (Plasmodium falciparum) (UniProt C6KSN9); conditions: PBM; highest protein concentration obtained; buffer not given; scale: PBM E-score of the seed 8-mer
T9 sequence: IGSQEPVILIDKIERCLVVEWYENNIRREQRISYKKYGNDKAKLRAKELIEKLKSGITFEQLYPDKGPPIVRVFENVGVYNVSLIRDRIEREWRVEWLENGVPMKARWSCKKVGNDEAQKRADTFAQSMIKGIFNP

[10] = target: T10, PF13_0235 D1ext (PF3D7_1342900, AP2 domain transcription factor, putative) (Plasmodium falciparum) (UniProt C0H5G5); conditions: PBM; highest protein concentration obtained; buffer not given; scale: PBM E-score of the seed 8-mer
T10 sequence: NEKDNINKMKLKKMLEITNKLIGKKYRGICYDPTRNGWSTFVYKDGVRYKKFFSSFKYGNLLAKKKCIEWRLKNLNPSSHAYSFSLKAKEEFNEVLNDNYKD

[11] = target: T11, MAL8P1.153 D1 (PF3D7_0802100, AP2 domain transcription factor, putative) (Plasmodium falciparum) (UniProt Q8IAM1); conditions: PBM; highest protein concentration obtained; buffer not given; scale: PBM E-score of the seed 8-mer
T11 sequence: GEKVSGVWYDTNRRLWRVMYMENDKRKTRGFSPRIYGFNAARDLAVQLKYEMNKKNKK

[12] = target: T12, PFE0840c D2 (PF3D7_0516800, AP2 domain transcription factor AP2-O2, putative) (Plasmodium falciparum) (UniProt Q8I3U0); conditions: PBM; highest protein concentration obtained; buffer not given; scale: PBM E-score of the seed 8-mer
T12 sequence: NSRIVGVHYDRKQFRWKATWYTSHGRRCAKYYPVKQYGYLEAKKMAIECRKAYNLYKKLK

[13] = target: T13, PF07_0126 DLDext (PF3D7_0730300, AP2 domain transcription factor AP2-L, putative) (Plasmodium falciparum) (UniProt Q8IBF6); conditions: PBM; highest protein concentration obtained; buffer not given; scale: PBM E-score of the seed 8-mer
T13 sequence: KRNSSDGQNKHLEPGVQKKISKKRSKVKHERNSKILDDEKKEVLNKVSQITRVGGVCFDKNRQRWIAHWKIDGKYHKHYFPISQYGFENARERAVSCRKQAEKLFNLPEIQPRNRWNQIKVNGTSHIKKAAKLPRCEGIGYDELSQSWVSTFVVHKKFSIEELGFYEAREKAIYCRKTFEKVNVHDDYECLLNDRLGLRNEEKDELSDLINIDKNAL

[14] = target: T14, PFL1900w DLD (PF3D7_1239200, AP2 domain transcription factor, putative) (Plasmodium falciparum, UniProt Q8I531 2149-2347); experiment: EMSA; 5 mM MgCl2 with 10 mM EDTA; LightShift buffer, 2.5% glycerol, 50 mM KCl, 0.05% NP-40, 50 ng/uL poly(dI-dC); room temperature, 20 min; conditions: tags: N-terminal GST (pGEX-4T1), kept; label: 5' biotin
T14 sequence: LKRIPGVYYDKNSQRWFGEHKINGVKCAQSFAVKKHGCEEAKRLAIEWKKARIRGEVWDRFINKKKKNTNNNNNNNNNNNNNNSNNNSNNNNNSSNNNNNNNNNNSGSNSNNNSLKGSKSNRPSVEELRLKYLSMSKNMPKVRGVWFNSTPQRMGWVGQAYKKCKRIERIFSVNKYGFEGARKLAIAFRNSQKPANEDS

[15] = target: T15, PF13_0267 D1 (PF3D7_1350900, AP2 domain transcription factor AP2-O4, putative) (Plasmodium falciparum, UniProt A0A5K1K8Z4 400-521); experiment: as above; conditions: tags: N-terminal GST (pGEX-4T1), kept; label: 5' biotin
T15 sequence: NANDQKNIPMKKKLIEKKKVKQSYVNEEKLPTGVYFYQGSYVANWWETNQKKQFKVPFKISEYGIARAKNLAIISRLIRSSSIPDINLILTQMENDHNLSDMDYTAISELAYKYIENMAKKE

[16] = target: T16, PF13_0235 D1ext (PF3D7_1342900, AP2 domain transcription factor, putative) (Plasmodium falciparum, UniProt C0H5G5 2339-2440); experiment: as above; conditions: tags: N-terminal GST (pGEX-4T1), kept; label: 5' biotin
T16 sequence: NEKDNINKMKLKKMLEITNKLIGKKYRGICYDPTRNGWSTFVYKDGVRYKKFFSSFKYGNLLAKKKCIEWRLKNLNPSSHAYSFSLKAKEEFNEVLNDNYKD

[17] = target: T17, PFD0985w_D2 (AP2 domain 2) (Plasmodium falciparum, UniProt Q8I1N6 3268-3321); experiment: EMSA; poly(dI-dC); LightShift EMSA buffer, 2.5% glycerol, 5 mM MgCl2, 10 mM EDTA, 50 mM KCl, 0.05% NP-40, 50 ng/uL poly(dI-dC), 10 fmol biotin probe, 50 or 250x competitor, room temperature 20 min; conditions: protein: recombinant; tags: N-terminal GST (pGEX-4T1); label: 5' biotin (probe); blunt
T17 sequence: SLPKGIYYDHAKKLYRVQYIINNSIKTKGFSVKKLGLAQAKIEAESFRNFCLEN

Q: Which binding signal [1] does the source give for “TGCACACAC (double strand) [PF13_0026 primary motif]” here?
A: 0.495

Q: “GTGTGTG (double strand) [PFD0985w_D1 primary motif]” was tested. Which binding signal [2] did it give?
A: 0.497

Q: “TCTTGCC (double strand) [PF10_0075_D2 primary motif]” was tested. Which binding signal [3] did it give?
A: 0.468

Q: How did the binding signal [4] turn out when “WTAAGCC (double strand) [PFF0670w_D1 primary motif]” was run?
A: 0.465

Q: Which binding signal [5] does the source give for “AGCTAGCT (double strand) [PF11_0442 primary motif]” here?
A: 0.478

Q: For “TGCNACCA (double strand) [PF14_0079 primary motif]”, which binding signal [6] is on record?
A: 0.487

Q: With “AGCATAC (double strand) [PF11_0091 primary motif]” as the molecule, how does the binding signal [7] read?
A: 0.472

Q: For “TTCTACA (double strand) [PFL1900w_D1 primary motif]”, which binding signal [8] is on record?
A: 0.46

Q: With “GTGCAC (double strand) [PFF0200c_DLD primary motif]” as the molecule, how does the binding signal [9] read?
A: 0.481

Q: How did the binding signal [10] turn out when “AWGGKMCC / GGKMCCWT [PF13_0235_D1 Secondary motif 1]” was run?
A: > 0.45

Q: For “CACACACA (double strand) [MAL8P1.153 primary motif]”, which binding signal [11] is on record?
A: 0.477

Q: For “TGACATCA (double strand) [PFE0840c_D2 primary motif]”, which binding signal [12] is on record?
A: 0.472

Q: For “GCCCCGC (double strand) [PF13_0235_D1 primary motif]”, which binding signal [10] is on record?
A: 0.494

Q: For “AATTTCC (double strand) [PF07_0126_DLD primary motif]”, which binding signal [13] is on record?
A: 0.467

B1: PFL1900w_DLD-1 (motif rank) (dsDNA)
DNA 1: AATATTATAATAGTCGTAGCCATCAATTCTACAAAATGGTAATATAGATTTTCGTTTATATT
DNA 2: AATATAAACGAAAATCTATATTACCATTTTGTAGAATTGATGGCTACGACTATTATAATATT
Q: Does B1 bind [14]?
A: binds

B2: PFL1900w_DLD-2 (motif rank) (dsDNA)
DNA 1: AATATTATAATAGTCGTAGCCATCAATACGACATCATGGTAATATAGATTTTCGTTTATATT
DNA 2: AATATAAACGAAAATCTATATTACCATGATGTCGTATTGATGGCTACGACTATTATAATATT
Q: Does B2 bind [14]?
A: binds

B3: pfc0975c (dsDNA)
DNA 1: TTATGATGATACATAAATTACTGATCTTTCTAGGTGCGCTGCTACCATTATCGTGAATAA
DNA 2: TTATTCACGATAATGGTAGCAGCGCACCTAGAAAGATCAGTAATTTATGTATCATCATAA
Q: Does B3 bind [15]?
A: binds

B4: pfc0975c-MUT (dsDNA)
DNA 1: TTATGATGATACATAAATTACTGATCTTTCAAAGTGCGCTGCTACCATTATCGTGAATAA
DNA 2: TTATTCACGATAATGGTAGCAGCGCACTTTGAAAGATCAGTAATTTATGTATCATCATAA
Q: Does B4 bind [15]?
A: no binding

B5: hsp86-MUT3 (dsDNA)
DNA 1: TTTTAAAAAAAAAAAAAAAGTATAGCGGAAATATACCATTGGATATATATTTAGTATTCC
DNA 2: GGAATACTAAATATATATCCAATGGTATATTTCCGCTATACTTTTTTTTTTTTTTTAAAA
Q: Does B5 bind [16]?
A: no binding

B6: PFD0985w_D2-1° (dsDNA)
DNA 1: AATATTATAATAGTCGTAGCCATCAATGTGTAACACATGGTAATATAGATTTTCGTTTATATT
DNA 2: AATATAAACGAAAATCTATATTACCATGTGTTACACATTGATGGCTACGACTATTATAATATT
Q: Does B6 bind [17]?
A: binds

B7: hsp86 (dsDNA)
DNA 1: TTTTAAAAAAAAAAAAAAAGCCCCGCGGAAAGGGGCCATTGGATATATATTTAGTATTCC
DNA 2: GGAATACTAAATATATATCCAATGGCCCCTTTCCGCGGGGCTTTTTTTTTTTTTTTAAAA
Q: Does B7 bind [16]?
A: binds
